According to patent US6517838B1, “Decorin binding protein essential peptides and methods of use” (The Texas A&M University System, priority 2000, dated 2003):

Experiments:
[1] = test system: polyclonal, rabbit anti-DbpA (625); assay: ELISA recognition of DbpA-peptides by polyclonal anti-DbpA serum; format: binding; conditions: 2 μg peptide/well, 1:1000 anti-DbpA serum, FIG. 2
Procedure: Immulon-1 microtiter plate wells (Dynatech Labs, Chantilly, Va.) were coated with 2.0 μg of each peptide in 50 μl of PBS overnight at 4° C. The wells were washed and then blocked with 400 μl of Super Block (Pierce, Rockford, Ill.). All incubations were done at 37° C. and all dilutions were made using Super Block. After washing, 100 μl of a 1:1000 dilution of polyclonal, rabbit anti-DbpA (625) (17) was added for 1 hr. After washing, 100 μl of a 1:1000 dilution of AP-conjugated anti-rabbit IgG (Bio-Rad, Hercules, Calif.) was added for 1 hr. The wells were washed and incubated with 100 μl of a 1 mg/ml of Sigma 104 phosphatase substrate (Sigma Chemical Co., St. Louis, Mo.) dissolved in 1 M diethanolamine, 0.5 mM MgCl2, pH 9.8. Plates were washed with 0.05% PBS-Tween 20 between all steps. The absorbance at 410 nm was determined in a Microplate Reader (Molecular Devices, Menlo Park, Calif.).
Immunizations utilizing peptide formulations require that immune responses to the peptide(s) result in recognition of native-protein epitopes. […] Cross-reactivity of peptide epitopes with native protein was examined by ELISA.

[2] = test system: recombinant DbpA; assay: Delayed-type hypersensitivity (DTH) to DbpA, footpad swelling in immunized mice; format: in vivo, B. burgdorferi
Procedure: (§1) Mice were immunized with recombinant DbpA (SEQ ID 1), P2 (SEQ ID 3), P4 (SEQ ID 5), P5 (SEQ ID 6), P4/P5 (SEQ ID 5/SEQ ID 6), P9 (SEQ ID 10), or the corresponding lysine modified counterparts (P2 Mod, P4 Mod, P5 Mod or P9 Mod) using the immunization schedule established by Hanson (11). Briefly, mice were immunized with 20 μg of protein or peptide in complete Freund's adjuvant (CFA) (Week 1), boosted at week 4 with the same dose in incomplete Freund's adjuvant (IFA) and infected at week 6.
Native C3H/HeJ mice immunized with DbpA (SEQ ID 1), P2 (SEQ ID 3), P4 (SEQ ID 5), P5 (SEQ ID 6), P4/P5 (SEQ ID 5/SEQ ID 6), P9 (SEQ ID 10), or the corresponding lysine modified counterparts (P2 Mod, P4 Mod, P5 Mod or P9 Mod) were challenged with 2 μg of recombinant DbpA in PBS (50 μl/footpad) 7 weeks after the initial immunization. All footpads were measured before and 24 h after challenge using a spring-loaded micrometer (Mitutoyo, Tokyo, Japan) as described (23). The mice were anesthetized as described above during footpad measurements and injections. Swelling was determined by subtracting the footpad measurements before challenge from those taken 24 h after challenge.
DTH is an in vivo method of testing T cell-dependent immune responses that are manifested by inflammation at the site of antigenic challenge. Mice immunized with DbpA (SEQ ID 1), P2 (SEQ ID 3), P4 (SEQ ID 5), P5 (SEQ ID 6), P4/P5 (SEQ ID 5/SEQ ID 6) combined, P9 (SEQ ID 10), or the corresponding lysine-modified peptides were challenged in the footpad with 2 μg of recombinant DbpA (SEQ ID 1). Footpad measurements were taken before and after challenge as described above. DbpA (SEQ ID 1)-immunized mice developed a significant footpad swelling of 53.3±3.5 (not shown) compared to mice immunized with adjuvant alone or naive mice receiving only the DbpA (SEQ ID 1) challenge. Peptide-immunized mice, with the exception of P2 (SEQ ID 3), also developed a significant DTH response to DbpA (SEQ ID 1) compared to the lysine-modified controls.

[3] = test system: B. burgdorferi strain B31; assay: Blood cultures for spirochetes after infection of immunized mice; format: in vivo; conditions: immunized C3H/HeJ mice, blood 7 days post infection with 10^4 Borrelia i.d.
Procedure: as §1
(§2) Low-passage B. burgdorferi strain B31 (passage 5) was used in this study and cultured in BSK II (Barbour-Stoenner-Kelly) medium at 34° C. (22). Bacterial cultures were incubated in CO2-enriched atmosphere in a GasPak chamber (BBL, Baltimore, Md.) containing BBL GasPak Plus envelopes and a GasPak anaerobic indicator (Beckton dickinson, Cockeysville, Md.) until the cells reached log phase. Bacterial counts were determined using dark field microscopy and a Petroff-Hausser chamber.
(§3) Mice (15 mice/group) were anesthetized with Metofane (methoxyflurane; Pitman-Moore, Mundelein, Ill.) and 10 mice/ group were infected i.d. at the base of the tail with 10^4 Borrelia in 100 μl of media 6 six weeks after the first immunization. The remaining 5 mice/group were tested for a DTH response to recombinant DbpA. Following infection, mice were bled 7 and 14 days postinfection. […]

[4] = test system: B. burgdorferi strain B31; assay: Joint cultures for spirochetes after infection of immunized mice; format: in vivo; conditions: immunized C3H/HeJ mice, joints 14 days post infection
Procedure: as §1, §2, §3

[5] = test system: B. burgdorferi strain B31; assay: Arthritis assessment, histopathology of hind tibiotarsal joints of immunized infected mice; format: in vivo
Procedure: as §1
Mice (15 mice/group) were anesthetized with Metofane (methoxyflurane; Pitman-Moore, Mundelein, Ill.) and 10 mice/ group were infected i.d. at the base of the tail with 10^4 Borrelia in 100 μl of media 6 six weeks after the first immunization. The remaining 5 mice/group were tested for a DTH response to recombinant DbpA. Following infection, mice were bled 7 and 14 days postinfection. Serum was collected for antibody analysis and blood cultured for the detection of live spirochetes by inoculating 5 ml of BSK II medium with 50 μl of blood from each infected mouse and cultured for 2 weeks at 34° C. as described above. Also on day 14 postinfection, mice were sacrificed and one hind tibiotarsal joint, heart, bladder, and a 3 mm skin biopsy from the ear were aseptically removed and inoculated into separate tubes containing 6 ml of BSK II medium with antibiotics (50 μg/ml rifampacin and 100 μg/ml phosphomycin (Sigma), and incubated for 2 weeks at 34° C. as described above. Evidence of arthritis was determined by histopathological examination of formalin-fixed hind tibiotarsal joint samples.
Evidence of arthritis was determined by histopathological examination of formalin-fixed hind tibiotarsal joint samples. Tissues for histological examination were embedded in paraffin and stained with hematoxylin and eosin. All sections were examined without knowledge of the vaccination status of the mouse. Arthritis was scored by one of two methods. A positive/negative assessment was used, as well as assignment of an arthritis severity score. Joints were scored according to the levels of infiltrate (neutrophils) as follows: 0, no arthritis, 1, minimal or rare (≦10% tissue involvement); 2, mild (10-20%); […]; and 4, severe (>50%).
A similar trend was also observed for joints examined for arthritis (Table I). DbpA-(SEQ ID 1), P4-(SEQ ID 5), and P5-(SEQ ID 6) immunized mice had the lowest arthritis ratings (0.2, 1.2, and 0.4, respectively) and lowest arthritis incidence (20, 60, and 20%, respectively).

[6] = biological target: T1, decorin (Bos taurus, UniProt P21793); assay: Western ligand blot with digoxigenin-labeled decorin; format: binding, bovine; conditions: SDS-PAGE reducing, probed with digoxigenin-labeled decorin
T1 construct: Decorin from bovine fetal skin was purified and stored in 4 M guanidine hydrochloride; from tissue; host or cells: decorin from bovine fetal skin; DbpA made in E. coli JM101
Procedure: Decorin from bovine fetal skin was purified and stored in 4 M guanidine hydrochloride at −80° C. and dialyzed extensively against PBS before use. Decorin was labeled with digoxigenin-3-O-methylcarbonyl-ε-aminocaproic acid-N-hydroxy-succinimide ester (digoxigenin) (Boehringer Mannheim, Indianapolis. Ind.) according to the manufacturer's instructions and stored at −20° C. To label decorin with biotin, 7.5 mg of NHS-LC-Biotin (sulfosuccinimidyl-6-(biotinamido) hexanoate) (Pierce, Rockford, Ill.) was dissolved in 100 μl of dimethyl sulfoxide and combined with 0.5 mg of decorin and 0.5 ml of 0.2 M sodium borate (pH 8.0) in a total reaction volume of 1 ml.
Proteins (purified DbpA, DbpA site-directed mutants and OspC) were subjected to SDS-PAGE (reducing conditions) and probed with rabbit anti-DbpA polyclonal sera (R625) or with digoxigenin-labeled decorin.
Further, the side chains of lysine residues were chemically modified and the binding properties of the resulting protein examined. […] Both forms of DbpA migrated as two bands, monomers at 20 and 21 kDa and dimers at 40 and 42 kDa for DbpA and chemically modified DbpA (K-mod), respectively. The decorin binding activity of the DbpA and lysine-modified DbpA was examined in a Western ligand blot assay (FIG. 6B).

T1 sequence (P21793 31-360): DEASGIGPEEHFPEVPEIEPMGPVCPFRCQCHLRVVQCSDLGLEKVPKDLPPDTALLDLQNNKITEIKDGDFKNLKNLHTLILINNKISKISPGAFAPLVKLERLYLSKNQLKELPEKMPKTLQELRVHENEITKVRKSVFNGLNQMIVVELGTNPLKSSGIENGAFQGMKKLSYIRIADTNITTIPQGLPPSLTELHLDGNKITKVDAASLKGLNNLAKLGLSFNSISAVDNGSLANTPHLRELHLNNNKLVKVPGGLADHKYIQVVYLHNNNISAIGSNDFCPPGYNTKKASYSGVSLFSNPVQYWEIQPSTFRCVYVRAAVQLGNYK

B1: DbpA: recombinant decorin binding protein A of B. burgdorferi strain 297, N-terminal His-tag fusion (protein)
chain: MIKCNNKTFNNLLKLTILVNLLISCGLTGATKIKLESSAKAIVDEIDAIKKKAASMGVNFDAFKDKKTGSGVSENPFILEAKVRATTVAEKFVIAIEEEATKLKETGSSGEFSAMYDLMFEVSKPLQELGIQEMTKTVSMAAEENPPTTAQGVLEIAKKMREKLQRVHKKNQDTLKKKNTEDSTAKS
modifications: N-terminal His-tag; Borrelia Burgdorferi
B1 was tested, and the “recognition by anti-DbpA serum (ELISA, O.D. 410 nm)” value [1] was “recognized”, the “DTH response to DbpA (in words)” value ([2]; C3H/HeJ mice immunized with 20 μg, challenged with 2 μg recombinant DbpA in footpad, 24 h) was “significant inflammation” and the footpad swelling ([2]; C3H/HeJ mice, 24 h after challenge with 2 μg recombinant DbpA, mean±SE) was 53.3±3.5. The positive blood cultures [3] was 50-60%, the positive joint cultures [4] was 20% and the “arthritis incidence and severity (in words)” value ([5]; immunized infected mice) was “lowest”. The “% Incidence (arthritis)” value ([5]; immunized mice, day 14 post infection, tibiotarsal joint histology) was 20%, the “Mean Arthritis Rating” value ([5]; severity score 0-4 by neutrophil infiltrate, day 14 post infection) was 0.2 and the “decorin binding in Western ligand blot” value [6] was “bound digoxigenin-labeled decorin”.
